Our source for the EC50 values is patent US20240132593A1 (published 2024).

For test [1], the target named is T1, FcRn receptor (biotinylated, AlphaLisa binding kit Perkin Elmer #AL3095C) (UniProt P55899 24-297; P61769 21-119, biotinylated (sites not given)). Description: AlphaLISA FcRn binding assay.
Test [2] deals with T2, immunoglobulin gamma Fc receptor 1 (FcγR1) (biotinylated, AlphaLisa binding kit Perkin Elmer #AL3081C) (UniProt P12314 16-288, biotinylated (sites not given)).
T2 chain: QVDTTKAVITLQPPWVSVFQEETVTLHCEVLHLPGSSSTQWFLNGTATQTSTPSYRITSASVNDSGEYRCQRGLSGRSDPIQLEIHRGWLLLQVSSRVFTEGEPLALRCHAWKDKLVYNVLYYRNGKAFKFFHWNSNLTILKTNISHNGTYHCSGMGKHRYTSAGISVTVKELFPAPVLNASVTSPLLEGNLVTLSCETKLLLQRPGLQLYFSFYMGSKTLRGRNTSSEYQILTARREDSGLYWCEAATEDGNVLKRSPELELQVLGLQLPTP
As to the kind of experiment: AlphaLISA FcγR1 binding assay.

Test [3] concerns the target FCGR2A/CD32A (167R). Description: AlphaLISA FcγR2a binding assay. For orientation: Bead proximity is the source of the signal in Alpha formats.
Test [4] concerns the target FCGR2A/CD32A (167H). Description: AlphaLISA FcγR2a binding assay.
The target of test [5] is T1, FcRn receptor (biotinylated, AlphaLisa …). As to the kind of experiment: AlphaLISA FcRn binding assay. This is another data set of the same source.
In test [6] the target is T2, immunoglobulin gamma Fc receptor 1 …. As to the kind of experiment: AlphaLISA FcγR1 binding assay.
The target in test [7] is T3, FCGR1/CD64 (UniProt P12314 16-288, biotinylated (sites not given)).
T3 chain: T2 chain
As to the kind of experiment: AlphaLISA FcγR1 binding assay.

Test [8] addresses FcRn (UniProt P55899 24-297; P61769 21-119, biotinylated (sites not given)). As to the kind of experiment: AlphaLISA FcRn binding assay.

Several values for one entry are separate records, joined by “and”; a condition that tells them apart may be missing. Equal entries are not always repeated. Where two headings read alike, the source gives them in different places.

B1: Ab No. 420.4(YTE) (antibody)
chain 1: MGWSCIILFLVATATGVHSQLQLQESGPGLVKPSETLSLTCIVSGGSISSSGYYWGWIRQPPGKGLEWIGSIFYSGNTHYNPSLKSRVTIPVDTSKNQFSLKLSSVTAADSAVYYCARRDILTGPFDYWGQGTLVTVSSAASTKGPSVFPLAPCSRSTSESTAALGCLVKDYFPEPVTVSWNSGALTSGVHTFPAVLQSSGLYSLSSVVTVPSSSLGTKTYTCNVDHKPSNTKVDKRVESKYGPPCPSCPAPEFLGGPSVFLFPPKPKDTLYITREPEVTCVVVDVSQEDPEVQFNWYVDGVEVHNAKTKPREEQFNSTYRVVSVLTVLHQDWLNGKEYKCKVSNKGLPSSIEKTISKAKGQPREPQVYTLPPSQEEMTKNQVSLTCLVKGFYPSDIAVEWESNGQPENNYKTTPPVLDSDGSFFLYSRLTVDKSRWQEGNVFSCSVMHEALHNHYTQKSLSLSLGK
chain 2: not shown
As for B1, the EC50 (as a rule, the concentration needed to bring the measured effect to its halfway point) in test [1] is 0.486 nM and 0.0729 µg/mL.

B2: Ab No. 420.4 (YTE) (antibody)
chain 1: B1 chain 1
chain 2: not shown
Turning to B2, the EC50 in test [2] was 139 nM and 20.8 µg/mL.

B3: Ab No. 420.1 (YTE) (antibody)
chain 1: MGWSCIILFLVATATGVHSQLQLQESGPGLVKPSETLSLTCIVSGGSISSSGYYWGWIRQPPGKGLEWIGSIFYSGNTHYNPSLKSRVTIPVDTSKNQFSLKLSSVTAADSAVYYCARRDILTGPFDYWGQGTLVTVSSAASTKGPSVFPLAPSSKSTSGGTAALGCLVKDYFPEPVTVSWNSGALTSGVHTFPAVLQSSGLYSLSSVVTVPSSSLGTQTYICNVNHKPSNTKVDKKVEPKSCDKTHTCPPCPAPELLGGPSVFLFPPKPKDTLYITREPEVTCVVVDVSHEDPEVKFNWYVDGVEVHNAKTKPREEQYNSTYRVVSVLTVLHQDWLNGKEYKCKVSNKALPAPIEKTISKAKGQPREPQVYTLPPSRDELTKNQVSLTCLVKGFYPSDIAVEWESNGQPENNYKTTPPVLDSDGSFFLYSKLTVDKSRWQQGNVFSCSVMHEALHNHYTQKSLSLSPGK
chain 2: not shown
Turning to B3, in test [2], the EC50 is 14.7 nM and 2.2 µg/mL.

B4: Ab No. 420.1(YTE) (antibody)
chain 1: B3 chain 1
chain 2: not shown
B4: the EC50 in test [1] was 0.376 nM and 0.0565 µg/mL.

B5: Ab No. 150.1 (YTE) (antibody)
light: not shown
heavy: QVQLQESGPGLVKPSETLSLTCTVSGGSISSYYWSWIRQPPGKGLEWIGYIYYSGSTNYNPSLKSRVTISVDTSKSQFSLKLSSVTAADTAVYYCARDIPAFAFDIWGQGTMVIVSSASTKGPSVFPLAPSSKSTSGGTAALGCLVKDYFPEPVTVSWNSGALTSGVHTFPAVLQSSGLYSLSSVVTVPSSSLGTQTYICNVNHKPSNTKVDKKVEPKSCDKTHTCPPCPAPELLGGPSVFLFPPKPKDTLYITREPEVTCVVVDVSHEDPEVKFNWYVDGVEVHNAKTKPREEQYNSTYRVVSVLTVLHQDWLNGKEYKCKVSNKALPAPIEKTISKAKGQPREPQVYTLPPSRDELTKNQVSLTCLVKGFYPSDIAVEWESNGQPENNYKTTPPVLDSDGSFFLYSKLTVDKSRWQQGNVFSCSVMHEALHNHYTQKSLSLSPGK
For B5, the EC50 in test [3] was 275 nM and 41.3 µg/mL; in test [4], 18.3 µg/mL and 122 nM.

B6: Antibody No. 150.1 (antibody)
light: not shown
heavy: B5 heavy
Take B6: the 50% effective concentration (EC50) in test [5] is 0.142 µg/mL; in test [6], 5.8 nM and 0.868 µg/mL.

B7: VSTB174 (WT) (antibody)
chain 1: not shown
chain 2: DIQMTQSPSSLSASVGDRVTITCRASQSIDTRLNWYQQKPGKAPKLLIYSASSLQSGVPSRFSGSGSGTDFTLTISSLQPEDFATYYCQQSAYNPITFGQGTKVEIKRTVAAPSVFIFPPSDEQLKSGTASVVCLLNNFYPREAKVQWKVDNALQSGNSQESVTEQDSKDSTYSLSSTLTLSKADYEKHKVYACEVTHQGLSSPVTKSFNRGEC
As for B7, the EC50 in test [7] is 3.6 nM and 0.534 µg/mL; in test [3], 4.6 µg/mL; in test [4], 2.1 µg/mL; in test [8] it was 1.5 µg/mL.
